Tested on: ATF 3r (six-zinc-finger artificial transcription factor with NLS, VP64 and HA tag) (artificial/designed (expressed in E. coli BL21))
Experiment: EMSA
Settings: EMSA: 2.5% glycerol, 5 mM MgCl2, 0.05% NP-40, 50 mM KCl, 20 uL, 20 pmol DNA, 0 C 1 h; 4-8% native PAGE in TBE pH 8.2-8.4, 5 C, SYBR Safe stain; binding pH not …

IFNG target dsDNA (ATF 3 site)
Kd: 5.2 nM

Reference: paper PMC11751033
